This series deals with the compound of Formula IV.

Residue numbers refer to the chain shown, from its start.

B1: MtbGyrase with MtbGyrAP353L (protein)
chain 1: TDTTLPPDDSLDRIEPVDIEQEMQRSYIDYAMSVIVGRALPEVRDGLKPVHRRVLYAMFDSGFRPDRSHAKSARSVAETMGNYHPHGDASIYDSLVRMAQPWSLRYPLVDGQGNFGSPGNDPPAAMRYTEARLTPLAMEMLREIDEETVDFIPNYDGRVQEPTVLPSRFPNLLANGSGGIAVGMATNIPPHNLRELADAVFWALENHDADEEETLAAVMGRVKGPDFPTAGLIVGSQGTADAYKTGRGSIRMRGVVEVEEDSRGRTSLVITELPYQVNHDNFITSIAEQVRDGKLAGISNIEDQSSDRVGLRIVIEIKRDAVAKVVINNLYKHTQLQTSFGANMLAIVDGVLRTLRLDQLIRYYVDHQLDVIVRRTTYRLRKANERAHILRGLVKALDALDEVIALIRASETVDIARAGLIELLDIDEIQAQAILDMQLRRLAALERQRIIDDLAKIEAEIADLEDILAKPERQRGIVRDELAEIVDRHGDDRRTRIIAADGDVSDEDLIAREDVVVTITETGYAKRTKTDLYRSQKRGGKGVQGAGLKQDDIVAHFFVCSTHDLILFFTTQGRVYRAKAYDLPEASRTARGQHVANLLAFQPEERIAQVIQIRGYTDAPYLVLATRNGLVKKSKLTDFDSNRSGGIVAVNLRDNDELVGAVLCSAGDDLLLVSANGQSIRFSATDEALRPMGRATSGVQGMRFNIDDRLLSLNVVREGTYLLVATSGGYAKRTAIEEYPVQGRGGKGVLTVMYDRRRGRLVGALIVDDDSELYAVTSGGGVIRTAARQVRKAGRQTKGVRLMNLGEGDTLLAIARNAEESGDDNAVDANGADQTGN
chain 2: MAAQKKKAQDEYGAASITILEGLEAVRKRPGMYIGSTGERGLHHLIWEVVDNAVDEAMAGYATTVNVVLLEDGGVEVADDGRGIPVATHASGIPTVDVVMTQLHAGGKFDSDAYAISGGLHGVGVSVVNALSTRLEVEIKRDGYEWSQVYEKSEPLGLKQGAPTKKTGSTVRFWADPAVFETTEYDFETVARRLQEMAFLNKGLTINLTDERVTQDEVVDEVVSDVAEAPKSASERAAESTAPHKVKSRTFHYPGGLVDFVKHINRTKNAIHSSIVDFSGKGTGHEVEIAMQWNAGYSESVHTFANTINTHEGGTHEEGFRSALTSVVNKYAKDRKLLKDKDPNLTGDDIREGLAAVISVKVSEPQFEGQTKTKLGNTEVKSFVQKVCNEQLTHWFEANPTDAKVVVNKAVSSAQARIAARKARELVRRKSATDIGGLPGKLADCRSTDPRKSELYVVEGDSAGGSAKSGRDSMFQAILPLRGKIINVEKARIDRVLKNTEVQAIITALGTGIHDEFDIGKLRYHKIVLMADADVDGQHISTLLLTLLFRFMRPLIENGHVFLAQPPLYKLKWQRSDPEFAYSDRERDGLLEAGLKAGKKINKEDGIQRYKGLGEMDAKELWETTMDPSVRVLRQVTLDDAAAADELFSILMGEDVDARRSFITRNAKDVRFLDV
B1: the “compound-induced DNA cleavage compared to wildtype MtbGyrase” value is on record as “reduced cleavage (5 to 100-fold)”.

B2: MtbGyrase with MtbGyrAA32V (protein)
chain 1: B1 chain 1 with A31V, L352P
chain 2: B1 chain 2
As to B2, the “compound-induced DNA cleavage compared to wildtype MtbGyrase” value is on record as “reduced cleavage (5 to 100-fold)”.

B3: MtbGyrase with MtbGyrAI36F (protein)
chain 1: B1 chain 1 with I35F, L352P
chain 2: B1 chain 2
Consider B3, for which the “compound-induced DNA cleavage compared to wildtype MtbGyrase” value is recorded as “reduced cleavage (5 to 100-fold)”.

B4: MtbGyrase with MtbGyrAM33A (protein)
chain 1: B1 chain 1 with M32A, L352P
chain 2: B1 chain 2
Consider B4, for which the “compound-induced DNA cleavage compared to wildtype MtbGyrase” value was “reduced cleavage (5 to 100-fold)”.
